In the supplement of paper PMC7877785:
± gives the uncertainty stated by the source.

Assay: self-splicing fitness, log relative to wild type (ln ratio); higher = more splicing; Tetrahymena group I intron in knt gene, E. coli kanamycin selection, DiMSum; sequences stand for … in CUCUCU…GGAGGGAAAAGUUAUCAGGCAUGCACCUGGUAGCUAGUCUUUAAACCAAUAGAUUGCAUCGGUUUAAAAGGCAAGACCGUCAAAUUGCGGGAAAGGGGUCAACAGCCGUUCAGUACCAAGUCUCAGGGGAAACUUUGAGAUGGCCUUGCAAAGGGUAUGGUAAUAAGCUGACGGACAUGGUCCUAACCACGCAGCCAAGUCCUAAGUCAACAGAUCUUCUGUUGAUAUGGAUGCAGUUCACAGACUAAAUGUCGGUCGGGGAAGAUGUAUUCUUCUCAUAAGAUAUAGUCGGACCUCUCCUUAAUGGGAGCUAGCGGAUGAAGUGAUGCAACACUGGAGCCGCUGGGAACUAAUUUGUAUGCGAAAGUAUAUUGAUUAGUUUUGGAGUACUCGUGGUCG
In short: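 Fitness was computed with DiMSum as the error-weighted combination of replicate fold changes, kanamycin versus none, each normalised to wild type. The library randomised all eight intron nucleotides of the P1ex region, with the intron placed in the knt kanamycin-resistance gene on pET-22b(+) in E. coli BL21(DE3). Six replicate transformations were grown overnight at 37°C or 30°C on LB agar with or without 25 μg/mL kanamycin, plus 100 μg/mL carbenicillin, 50 μM IPTG and 0.2% rhamnose. Pooled colonies were amplicon-sequenced on an Illumina HiSeq 2500.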

Sequence	self-splicing fitness (ln) (30 °C)	self-splicing fitness (ln) (37 °C)
GUGGAGCAAUAUUACGUAUG	-3.15 ± 0.24	-2.3 ± 0.24
AGAAAGCAAUAUUACGAUCG	-0.0642 ± 0.072	-0.026 ± 0.091
UGGCAGCAAUAUUACGUACC	-0.627 ± 0.17	-0.885 ± 0.23
CUGGAGCAAUAUUACGCCUC		-1.07 ± 0.47
AUGCAGCAAUAUUACGGAAA	-1.86 ± 0.23	-2.17 ± 0.28
UGUAAGCAAUAUUACGGGGG	-3.46 ± 0.22	-1.88 ± 0.21
UUGUAGCAAUAUUACGUUGA	-2.95 ± 0.29	-0.294 ± 0.19
UGAGAGCAAUAUUACGUCAU	-1.71 ± 0.26	
GUGCAGCAAUAUUACGUGCG	-2.56 ± 0.1	-2.06 ± 0.14
GCAUAGCAAUAUUACGCUAA	-2.72 ± 0.27	-2.49 ± 0.22
GUUCAGCAAUAUUACGUUAG	-1.3 ± 0.077	-0.731 ± 0.11
GCGGAGCAAUAUUACGAGAU	-2.21 ± 0.27	-1.94 ± 0.4
UACCAGCAAUAUUACGUUCU	-2.28 ± 0.096	-1.86 ± 0.11
UUGUAGCAAUAUUACGGCUA		0.21 ± 0.5
UCGGAGCAAUAUUACGCAUU		-2.14 ± 0.27
CGCAAGCAAUAUUACGUGCC	-0.772 ± 0.073	-1.13 ± 0.11
GAUAAGCAAUAUUACGGGGC	-2.96 ± 0.25	-1.62 ± 0.18
AGCGAGCAAUAUUACGCAGC	-4.05 ± 0.46	
AAACAGCAAUAUUACGAGCG	-1.93 ± 0.079	-0.668 ± 0.095
CUACAGCAAUAUUACGGGGG	-3.39 ± 0.2	-2.26 ± 0.15
AAUAAGCAAUAUUACGACAA	-0.398 ± 0.13	-0.323 ± 0.12
AAAGAGCAAUAUUACGGGAA	-2.67 ± 0.32	-2.16 ± 0.28
GGUGAGCAAUAUUACGACGC	-0.546 ± 0.19	-0.0795 ± 0.28
GACAAGCAAUAUUACGCCUA	-0.964 ± 0.093	-0.0625 ± 0.088
CUCAAGCAAUAUUACGGCCU	-4.43 ± 0.39	-2.53 ± 0.32

Sequence	self-splicing fitness (ln) (30 °C)	self-splicing fitness (ln) (37 °C)
GCGCAGCAAUAUUACGAUCU	-0.609 ± 0.055	-0.141 ± 0.067
CUUAAGCAAUAUUACGUUAG	-3.59 ± 0.23	-1.59 ± 0.17
GCGUAGCAAUAUUACGAUAC	-1.95 ± 0.12	-0.893 ± 0.12
CGCAAGCAAUAUUACGACCU	-0.793 ± 0.092	-0.711 ± 0.12
AAUAAGCAAUAUUACGGUUC	-2.72 ± 0.14	-1.77 ± 0.15
CGCGAGCAAUAUUACGGGGG	-3.45 ± 0.38	-3.07 ± 0.32
CGCUAGCAAUAUUACGGGAC		-2.63 ± 0.22
UUUCAGCAAUAUUACGCCAA	-0.879 ± 0.18	-0.379 ± 0.18
CGUGAGCAAUAUUACGCUGU	-3.2 ± 0.26	-2.43 ± 0.26
CAACAGCAAUAUUACGGGGU	-4.57 ± 0.23	-2.79 ± 0.15
CUGUAGCAAUAUUACGGGAG	-4.83 ± 0.29	-1.67 ± 0.13
AGAAAGCAAUAUUACGUCAA	-1.61 ± 0.11	-0.692 ± 0.1
CCCAAGCAAUAUUACGCACC		-2.31 ± 0.33
CCUCAGCAAUAUUACGAUCU	-3.75 ± 0.27	-2.79 ± 0.23
GAUUAGCAAUAUUACGUUUG	-2.64 ± 0.15	-0.801 ± 0.16
AGAGAGCAAUAUUACGUAAG	-3.25 ± 0.26	-2.7 ± 0.36
CGGGAGCAAUAUUACGGGCU	-3.85 ± 0.34	-2.5 ± 0.41
ACACAGCAAUAUUACGAUCA	-1.39 ± 0.084	-0.858 ± 0.095
UCACAGCAAUAUUACGUCUA	-1.25 ± 0.077	-0.331 ± 0.075
GCAGAGCAAUAUUACGCCGA		-0.676 ± 0.34
GGAGAGCAAUAUUACGGUAU		-2.2 ± 0.34
ACAGAGCAAUAUUACGGUGU	-3.8 ± 0.15	-3.02 ± 0.22
UAAUAGCAAUAUUACGAAGC		-1.83 ± 0.33
CAGAAGCAAUAUUACGUUUC	-3.38 ± 0.29	-2.12 ± 0.23
UCCAAGCAAUAUUACGUAAU	-1.94 ± 0.11	-0.725 ± 0.14

Sequence	self-splicing fitness (ln) (30 °C)	self-splicing fitness (ln) (37 °C)
GAGAAGCAAUAUUACGACAG	-2.31 ± 0.19	-3.09 ± 0.4
UCAGAGCAAUAUUACGCAAU	-2.77 ± 0.24	-3.06 ± 0.35
GCCCAGCAAUAUUACGAUCU	-1.36 ± 0.092	-1.47 ± 0.12
ACGAAGCAAUAUUACGUUUG	-1.27 ± 0.071	-1.16 ± 0.11
CGCUAGCAAUAUUACGGACU	-0.928 ± 0.09	-1.08 ± 0.12
AUUUAGCAAUAUUACGGGGC	-3.54 ± 0.41	
CGGAAGCAAUAUUACGGUCA	-0.599 ± 0.078	0.421 ± 0.08
CGCGAGCAAUAUUACGUUAA	-3.18 ± 0.16	-4.09 ± 0.36
CGCCAGCAAUAUUACGUGAC	-3.64 ± 0.32	-2.96 ± 0.33
AGCUAGCAAUAUUACGAUCU	0.121 ± 0.12	0.532 ± 0.13
AGUCAGCAAUAUUACGUUAG	-3.63 ± 0.17	-1.43 ± 0.12
CUCUAGCAAUAUUACGUUCU	-3.1 ± 0.15	-3.47 ± 0.22
CCAUAGCAAUAUUACGCUAG	-3.8 ± 0.47	-1.82 ± 0.23
AAGGAGCAAUAUUACGUGCC	-3.03 ± 0.37	-0.905 ± 0.39
GCCCAGCAAUAUUACGGAGG	-4.2 ± 0.15	-2.51 ± 0.13
UGAAAGCAAUAUUACGUCCG	0.111 ± 0.1	0.472 ± 0.14
CGAUAGCAAUAUUACGGUUC	-3.63 ± 0.27	-1.96 ± 0.16
GCGCAGCAAUAUUACGCCUA	-0.46 ± 0.24	0.407 ± 0.16
GCCAAGCAAUAUUACGUUCC	-0.712 ± 0.1	-0.674 ± 0.16
ACUCAGCAAUAUUACGCUAG	-1.74 ± 0.094	-1.3 ± 0.11
CAAUAGCAAUAUUACGAGAC	-4.17 ± 0.36	-2.1 ± 0.27
UGGUAGCAAUAUUACGACCA	-1.07 ± 0.18	-1.02 ± 0.2
UUUAAGCAAUAUUACGGCGA	0.000504 ± 0.075	0.503 ± 0.1
GUUAAGCAAUAUUACGAUAU	-1.02 ± 0.067	-0.0864 ± 0.074
AAAAAGCAAUAUUACGCAAA	-1.15 ± 0.13	-1.43 ± 0.17

Sequence	self-splicing fitness (ln) (30 °C)	self-splicing fitness (ln) (37 °C)
UAUUAGCAAUAUUACGCAUG	-0.961 ± 0.081	-0.197 ± 0.11
UGCCAGCAAUAUUACGAUGC	-3.57 ± 0.17	-2.35 ± 0.21
GAAGAGCAAUAUUACGGCAA		-2.36 ± 0.49
AAUGAGCAAUAUUACGAGGA	-2.86 ± 0.36	-2.08 ± 0.36
CGCAAGCAAUAUUACGUUAU	-3.78 ± 0.24	-2.44 ± 0.14
CUAGAGCAAUAUUACGUCAC	-3.34 ± 0.36	-1.72 ± 0.29
GUGAAGCAAUAUUACGGUAU	-1.47 ± 0.076	-0.418 ± 0.1
GUCCAGCAAUAUUACGAAAU	-0.587 ± 0.1	-0.0182 ± 0.12
ACCAAGCAAUAUUACGAUUG	-2.86 ± 0.13	-3.02 ± 0.16
CCAAAGCAAUAUUACGGGAC	-4.28 ± 0.3	-3.32 ± 0.46
GGACAGCAAUAUUACGGCUA	-0.452 ± 0.13	-0.278 ± 0.12
AAUUAGCAAUAUUACGCGUC	-2.69 ± 0.16	-1.1 ± 0.14
UGGAAGCAAUAUUACGUAUU	-3.06 ± 0.23	-3.09 ± 0.33
GGUCAGCAAUAUUACGUUCC	-0.328 ± 0.24	-0.643 ± 0.28
UAAGAGCAAUAUUACGGGGU	-2.67 ± 0.19	-1.44 ± 0.49
AACGAGCAAUAUUACGACAA	-2.78 ± 0.24	-0.872 ± 0.18
GAUGAGCAAUAUUACGAUGC	-1.35 ± 0.086	-0.41 ± 0.12
GGCGAGCAAUAUUACGGCAA	-0.896 ± 0.19	-0.442 ± 0.2
CAAGAGCAAUAUUACGGAAG	-1.75 ± 0.13	-1.31 ± 0.19
GGCAAGCAAUAUUACGAUAU	-1.29 ± 0.073	-0.406 ± 0.096
CUCGAGCAAUAUUACGUGAG	-2.41 ± 0.17	-2.32 ± 0.23
UGAAAGCAAUAUUACGGACU	0.219 ± 0.079	0.125 ± 0.094
GAACAGCAAUAUUACGUUCU	-3.36 ± 0.13	-3.63 ± 0.2
ACCUAGCAAUAUUACGAAGG	-2.16 ± 0.086	-1.85 ± 0.15
